Laboratory results published in patent US20070280947A1.

Key:
[1] = biological target: Human Tie-2 (human) (UniProt Q02763); assay: cell-based or functional assay
[2] = biological target: Human Tie-1 (human) (UniProt P35590); assay: cell-based or functional assay
Sequence of UniProt P35590 (P35590 25-1138): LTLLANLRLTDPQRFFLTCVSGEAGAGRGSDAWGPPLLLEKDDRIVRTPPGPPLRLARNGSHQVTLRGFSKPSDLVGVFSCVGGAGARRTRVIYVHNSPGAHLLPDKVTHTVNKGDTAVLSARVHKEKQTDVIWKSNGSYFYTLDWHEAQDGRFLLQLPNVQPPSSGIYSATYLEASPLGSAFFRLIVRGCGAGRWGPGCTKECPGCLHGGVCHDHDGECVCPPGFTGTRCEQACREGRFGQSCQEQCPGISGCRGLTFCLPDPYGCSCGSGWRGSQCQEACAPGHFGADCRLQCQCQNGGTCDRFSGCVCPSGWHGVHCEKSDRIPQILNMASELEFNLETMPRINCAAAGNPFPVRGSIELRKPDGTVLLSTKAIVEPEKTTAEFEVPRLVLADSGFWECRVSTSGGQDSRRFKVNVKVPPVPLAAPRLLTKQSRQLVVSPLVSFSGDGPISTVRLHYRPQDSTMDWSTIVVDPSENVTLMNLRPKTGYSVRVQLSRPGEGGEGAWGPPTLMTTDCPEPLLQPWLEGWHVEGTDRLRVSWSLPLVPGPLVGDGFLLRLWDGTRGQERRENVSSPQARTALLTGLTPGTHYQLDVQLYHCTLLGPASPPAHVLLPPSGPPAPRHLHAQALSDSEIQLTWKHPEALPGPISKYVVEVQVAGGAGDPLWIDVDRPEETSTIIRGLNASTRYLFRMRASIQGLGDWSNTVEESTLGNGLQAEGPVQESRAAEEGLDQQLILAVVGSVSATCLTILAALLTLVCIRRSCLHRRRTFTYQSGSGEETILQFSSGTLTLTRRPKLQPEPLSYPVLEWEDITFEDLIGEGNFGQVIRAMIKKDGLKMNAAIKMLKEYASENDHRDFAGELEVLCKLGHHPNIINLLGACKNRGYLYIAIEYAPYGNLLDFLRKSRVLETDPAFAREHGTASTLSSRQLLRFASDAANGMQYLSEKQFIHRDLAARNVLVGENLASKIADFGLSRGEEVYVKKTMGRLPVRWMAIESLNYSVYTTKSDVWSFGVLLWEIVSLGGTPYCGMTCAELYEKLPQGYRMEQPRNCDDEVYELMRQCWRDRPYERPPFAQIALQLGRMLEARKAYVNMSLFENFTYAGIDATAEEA

Sequence of UniProt Q02763 (Q02763 23-1124 Q346P/T695I): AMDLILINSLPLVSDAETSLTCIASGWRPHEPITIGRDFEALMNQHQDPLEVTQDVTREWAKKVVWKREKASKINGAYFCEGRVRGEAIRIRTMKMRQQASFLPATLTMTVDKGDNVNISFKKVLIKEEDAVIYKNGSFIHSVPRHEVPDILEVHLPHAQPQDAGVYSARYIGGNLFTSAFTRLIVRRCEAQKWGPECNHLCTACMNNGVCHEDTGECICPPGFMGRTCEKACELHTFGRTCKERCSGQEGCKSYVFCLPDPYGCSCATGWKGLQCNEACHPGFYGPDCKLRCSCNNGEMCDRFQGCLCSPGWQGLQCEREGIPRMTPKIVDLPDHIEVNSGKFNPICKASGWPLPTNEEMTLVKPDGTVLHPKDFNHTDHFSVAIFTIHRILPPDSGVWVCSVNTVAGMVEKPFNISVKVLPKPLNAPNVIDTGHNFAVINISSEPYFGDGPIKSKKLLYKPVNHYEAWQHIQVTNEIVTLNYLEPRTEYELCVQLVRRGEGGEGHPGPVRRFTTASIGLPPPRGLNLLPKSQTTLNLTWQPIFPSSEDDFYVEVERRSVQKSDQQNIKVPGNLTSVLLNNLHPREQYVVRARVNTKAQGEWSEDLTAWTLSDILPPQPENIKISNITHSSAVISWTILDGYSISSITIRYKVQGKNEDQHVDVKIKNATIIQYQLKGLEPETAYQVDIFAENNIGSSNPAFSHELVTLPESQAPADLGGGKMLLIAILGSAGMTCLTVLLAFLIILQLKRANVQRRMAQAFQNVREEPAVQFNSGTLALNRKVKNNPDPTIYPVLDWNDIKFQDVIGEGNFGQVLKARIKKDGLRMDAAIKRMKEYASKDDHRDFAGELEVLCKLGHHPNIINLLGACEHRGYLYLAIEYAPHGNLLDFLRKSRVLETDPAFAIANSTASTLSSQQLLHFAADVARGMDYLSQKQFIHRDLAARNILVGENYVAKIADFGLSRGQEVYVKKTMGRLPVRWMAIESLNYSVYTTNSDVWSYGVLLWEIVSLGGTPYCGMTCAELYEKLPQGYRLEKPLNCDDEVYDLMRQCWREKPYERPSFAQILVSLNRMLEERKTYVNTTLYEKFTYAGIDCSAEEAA

COMP-Ang-1 concentration giving maximal receptor phosphorylation [1]: 600 ng/mL
COMP-Ang-1 concentration giving significant receptor phosphorylation [1]: 100 ng/mL
COMP-Ang-1 concentration giving maximal receptor phosphorylation [2]: 600 ng/mL
COMP-Ang-1 concentration giving significant receptor phosphorylation [2]: 100 ng/mL
Substance: COMP-Ang-1 chimeric protein (from UniProt Q15389 256-498) (ligand)
